According to patent publication US20050249719:

T1: gliadin peptide PQPQLPYPQPQLP
T1 chain: PQPQLPYPQPQLP

T2: 33-mer gliadin peptide LQLQPFPQPQLPYPQPQLPYPQPQLPYPQPQPF
T2 chain: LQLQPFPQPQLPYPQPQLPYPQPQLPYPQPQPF


What was measured:
[1] = target: T1, gliadin peptide PQPQLPYPQPQLP
[2] = target: T2, 33-mer gliadin peptide …

Row | Protein | Kcat/KM [1] | competitive proteolysis of the 13-mer and the 33-mer [1] | competitive proteolysis of the 13-mer and the 33-mer [2] | initial rate on the 33-mer, fold against MX PEP [2] | initial rate on the 33-mer, fold against SC PEP [2] | rate of substrate (33-mer+32-mer) disappearance [2] | time to hydrolyze 10 µM of the 33-mer with 0.1 µM enzyme [2] | kcat/KM of deamidation [2]
1 | Flavobacterium meningosepticum prolyl endopeptidase (recombinant, expressed in E. coli) (protein) QNSNVLKYPETKKVSHTDTYFGTQVSDPYRWLEDDRAEDTKAWVQQEVKFTQDYLAQIPFRDQLKKQLMDIWNYEKISAPFKKGKYTYFSKNDGLQAQSVLYRKDAAGKTEVFLDPNKFSEKGTTSLASVSFNKKGTLVAYSISEGGSDWNKIIILDAETKKQLDETLLDVKFSGISWLGDEGFFYSSYDKPKEGSVLSGMTDKHKVYFHKLGTKQSQDELIIGGDKFPRRYIGAYVTDDQRYLVVSAANATNGNELYIKDLKNKTDFIPIITGFDSNVNVADTDGDTLYLFTDKDAPNKRLVKTTIQNPKAETWKDVIAETSEPLEINTGGGYFFATYMKDAIDQVKQYDKNGKLVRAIKLPGSGNASGFGGEKTEKDLYYSFTNYITPPTIFKYNVTTGNSEVYQKPKVKFNPENYVSEQVFYTSSDGTKIPMMISYKKGLKKDGKNPTILYSYGGFNISLQPAFSVVNAIWMENGGIYAVPNIRGGGEYGKKWHDAGTKMQKKNVFNDFIAAGEYLQKNGYTSKEYMALSGRSNGGLLVGATMTMRPDLAKVAFPGVGVLDMLRYNKFTAGAGWAYDYGTAEDSKEMFEYLKSYSPVHNVKAGTCYPSTMVITSDHDDRVVPAHSFKFGSELQAKQSCKNPILIRIETNAGHGAGRSTEQVVAENADLLSFALYEMGIKSLK | 178 mM^-1/s^-1 | showed comparable selectivity for both peptides | showed comparable selectivity for both peptides | 5-fold faster on the 33-mer than the MX PEP | >20 fold faster than the SC PEP | 2.3 µM/min (FM PEP) | in about 2-3 minutes | 
2 | human tissue transglutaminase (protein) AEELVLERCDLELETNGRDHHTADLCREKLVVRRGQPFWLTLHFEGRNYEASVDSLTFSVVTGPAPSQEAGTKARFPLRDAVEEGDWTATVVDQQDCTLSLQLTTPANAPIGLYRLSLEASTGYQGSSFVLGHFILLFNAWCPADAVYLDSEEERQEYVLTQQGFIYQGSAKFIKNIPWNFGQFEDGILDICLILLDVNPKFLKNAGRDCSRRSSPVYVGRVVSGMVNCNDDQGVLLGRWDNNYGDGVSPMSWIGSVDILRRWKNHGCQRVKYGQCWVFAAVACTVLRCLGIPTRVVTNYNSAHDQNSNLLIEYFRNEFGEIQGDKSEMIWNFHCWVESWMTRPDLQPGYEGWQALDPTPQEKSEGTYCCGPVPVRAIKEGDLSTKYDAPFVFAEVNADVVDWIQQDDGSVHKSINRSLIVGLKISTKSVGRDEREDITHTYKYPEGSSEEREAFTRANHLNKLAEKEETGMAMRIRVGQSMNMGSDFDVFAHITNNTAEEYVCRLLLCARTVSYNGILGPECGTKYLLNLNLEPFSEKSVPLCILYEKYRDCLTESNLIKVRALLVEPVINSYLLAERDLYLENPEIKIRILGEPKQKRKLVAEVSLQNPLPVALEGCTFTVEGAGLTEEQKTVEIPDPVEAGEEVKVRMDLLPLHMGLHKLVVNFESDKLKAVKGFRNVIIGPA |  |  |  |  |  |  |  | kcat/KM=440 min-1 mM-1
